According to patent US20180193477A1 (Zymeworks, published 2018):
Changes are numbered by the printed parent chain.

B1: v15193, humanized bispecific anti-CD3-CD19 antigen-binding construct (humanized HD37 Fab / humanized OKT3 scFv hVH1/hVL2) (bispecific antibody, human IgG1, kappa, L234A L235A)
heavy: not shown
chain: QVQLVQSGGGVVQPGRSLRLSCKASGYTFTRYTMHWVRQAPGKGLEWIGYINPSRGYTNYNQKVKGRFTISTDKSKNTAYLQMDSLRAEDTGVYFCARYYDDHYSLDYWGQGTLVTVSSVEGGSGGSGGSGGSGGVDDIQMTQSPSSLSASVGDRVTITCSASSSVSYMNWYQQKPGKAPKRLIYDTSKLASGVPSRFSGSGSGTDYTLTISSLQPEDAATYYCQQWSSNPFTFGQGTKLEIKAAEPKSSDKTHTCPPCPAPEAAGGPSVFLFPPKPKDTLMISRTPEVTCVVVSVSHEDPEVKFNWYVDGVEVHNAKTKPREEQYNSTYRVVSVLTVLHQDWLNGKEYKCKVSNKALPAPIEKTISKAKGQPREPQVYVLPPSRDELTKNQVSLLCLVKGFYPSDIAVEWESNGQPENNYLTWPPVLDSDGSFFLYSKLTVDKSRWQQGNVFSCSVMHEALHNHYTQKSLSLSPG
light: DIQLTQSPSSLSASVGDRATITCRASQSVDYEGDSYLNWYQQKPGKAPKLLIYDASNLVSGIPSRFSGSGSGTDFTLTISSVQPEDAATYYCQQSTEDPWTFGCGTKLEIKRTVAAPSVFIFPPSDEQLKSGTASVVCLLNNFYPREAKVQWKVDNALQSGNSQESVTEQDSKDSTYSLSSTLTLSKADYEKHKVYACEVTHQGLSSPVTKSFNRGEC
notes: also called variant 15193
B2: v15194, humanized bispecific anti-CD3-CD19 antigen-binding construct (humanized HD37 Fab / humanized OKT3 scFv hVH2/hVL1) (bispecific antibody, human IgG1, kappa, L234A L235A)
heavy: not shown
chain: B1 chain with K74N, L183W
light: B1 light
notes: also called variant 15194
B3: v15195, humanized bispecific anti-CD3-CD19 antigen-binding construct (humanized HD37 Fab / humanized OKT3 scFv hVH2/hVL2) (bispecific antibody, human IgG1, kappa, L234A L235A)
heavy: not shown
chain: B1 chain with K74N
light: B1 light
notes: Unconjugated construct as used in SPR and whole cell FACS; also called variant v15195
B4: v15192, humanized bispecific anti-CD3-CD19 antigen-binding construct (humanized HD37 Fab / humanized OKT3 scFv hVH1/hVL1) (bispecific antibody, human IgG1, kappa, L234A L235A)
heavy: not shown
chain: B1 chain with L183W
light: B1 light
notes: also called variant 15192

Key:
[1] = molecular target: T1, Recombinant CD3epsilon/delta Fc fusion protein (Sino Biological) (UniProt P07766 23-126; P04234 22-105); experiment: SPR, BioRad ProteOn XPR36, 25 C, anti-Fc capture chip, Equilibrium Fit model, mean of three runs
T1 construct: Bought reagent; also called recombinant CD3 fusion protein; CD3 antigen; not shown: Fc part of the bought fusion protein; not described

[2] = molecular target: T2, CD3 on human CD3+ Jurkat T cells (human, UniProt P07766 23-207); experiment: whole cell FACS binding on Jurkat cells, apparent affinity
T2 construct: whole, on cells; CD3 is a complex of several chains on the cell; also called CD3 epsilon; CD3e

[3] = molecular target: T1, Recombinant CD3epsilon/delta Fc fusion …; experiment: SPR (summary of Example 6)

T1 sequence (P07766 23-126, stated change not applied, chain 1 of 2): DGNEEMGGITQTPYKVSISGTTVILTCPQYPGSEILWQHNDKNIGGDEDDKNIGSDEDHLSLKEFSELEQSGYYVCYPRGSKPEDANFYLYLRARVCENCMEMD
T1 sequence (P04234 22-105, stated change not applied, chain 2 of 2): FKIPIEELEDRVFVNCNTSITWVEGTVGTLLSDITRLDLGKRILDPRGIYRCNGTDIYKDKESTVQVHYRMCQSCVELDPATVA
T2 sequence (P07766 23-207): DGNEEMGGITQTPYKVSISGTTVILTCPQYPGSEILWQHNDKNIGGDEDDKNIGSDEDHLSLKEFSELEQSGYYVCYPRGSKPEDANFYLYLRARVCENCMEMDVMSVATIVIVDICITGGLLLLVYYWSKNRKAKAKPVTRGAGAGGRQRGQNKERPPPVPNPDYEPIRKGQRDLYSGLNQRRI

Row | Binder | Kd [1] | Kd [2] | binding result [3]
1 | B1 | 0.37 µM | – | –
2 | B2 | 0.349 µM | – | –
3 | B3 | 0.427 µM | 0.0447 µM | –
4 | B4 | – | – | binds
